The text below walks through data of the supplement of paper PMC9112550, “Optimization of the antimicrobial peptide Bac7 by deep mutational scanning” (BMC Biology, 2022).

In the series the test system is Escherichia coli TOP10. Nature of the series: shrunken log2 fold change of peptide-encoding DNA abundance (4.5 h post-induction vs induction); higher = less antimicrobial activity (less host growth inhibition). The settings on record: time post-induction: 4.5 h; library: site-saturation at positions 5, 18, 19, 20.
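Note: peptides expressed intracellularly from a pBAD plasmid library in pooled LB shake-flask culture, induced with 0.3% L-arabinose, DNA abundance read by NGS, three biological replicates, DESeq2 with apeglm shrinkage.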

Turning to RRIRPRPPRLPRPRPRPVLVPRP, the “shrunken log2 fold change” value was 0.0376. As for RRIRYRPPRLPRPRPRPPMYPRP, the “shrunken log2 fold change” value is -1.28. In the case of RRIRFRPPRLPRPRPRPHKTPRP it was -0.0597; in that of RRIRIRPPRLPRPRPRPHFTPRP, -0.0792.

Regarding RRIRQRPPRLPRPRPRPEEKPRP, the “shrunken log2 fold change” value was 0.00355. As for RRIRSRPPRLPRPRPRPPLNPRP, the “shrunken log2 fold change” value was 0.0261. Next, RRIRDRPPRLPRPRPRPKMSPRP: -0.0119; RRIRARPPRLPRPRPRPHNGPRP: 0.0647. In the case of RRIRQRPPRLPRPRPRPIYMPRP it was -0.113; in that of RRIRLRPPRLPRPRPRPHDQPRP, 0.276.

As to RRIRRRPPRLPRPRPRPHQTPRP, the “shrunken log2 fold change” value stood at 0.17.

Turning to RRIRLRPPRLPRPRPRPERIPRP, the “shrunken log2 fold change” value amounted to 0.0484.

On to RRIRGRPPRLPRPRPRPVPGPRP, for which the “shrunken log2 fold change” value was determined as 0.742.

With RRIRARPPRLPRPRPRPKPGPRP, the “shrunken log2 fold change” value worked out at 0.644. Next, RRIRPRPPRLPRPRPRPQHKPRP: -0.449. Take RRIRLRPPRLPRPRPRPPCRPRP: the “shrunken log2 fold change” value turned out to be 0.0548. Take RRIRERPPRLPRPRPRPCDGPRP: the “shrunken log2 fold change” value worked out at 0.142.

As for RRIRPRPPRLPRPRPRPPNYPRP, the “shrunken log2 fold change” value was -0.0609. Next, RRIRWRPPRLPRPRPRPCWSPRP: -0.106. For RRIRHRPPRLPRPRPRPNKIPRP, the “shrunken log2 fold change” value is -0.622. On to RRIRKRPPRLPRPRPRPFGWPRP, for which the “shrunken log2 fold change” value amounted to 0.682. For RRIRIRPPRLPRPRPRPWNVPRP, the “shrunken log2 fold change” value is -0.00149.

Take RRIRIRPPRLPRPRPRPAMMPRP: the “shrunken log2 fold change” value is -0.105. In the case of RRIRDRPPRLPRPRPRPYCNPRP it was -0.137; in that of RRIRQRPPRLPRPRPRPEWVPRP, 3.27.

Turning to RRIRDRPPRLPRPRPRPDDAPRP, the “shrunken log2 fold change” value worked out at 0.365. Consider RRIRFRPPRLPRPRPRPAQHPRP, for which the “shrunken log2 fold change” value stood at 0.265.

As for RRIRPRPPRLPRPRPRPCFLPRP, the “shrunken log2 fold change” value is -0.382.

For the sequence RRIRKRPPRLPRPRPRPILNPRP, the “shrunken log2 fold change” value is -0.158. Regarding RRIRMRPPRLPRPRPRPCQSPRP, the “shrunken log2 fold change” value turned out to be 0.288. For the sequence RRIRDRPPRLPRPRPRPGSVPRP, the “shrunken log2 fold change” value was determined as 0.113. In the case of RRIRTRPPRLPRPRPRPSKFPRP it was -0.624; in that of RRIRLRPPRLPRPRPRPWNMPRP, -0.31.

For the sequence RRIRPRPPRLPRPRPRPKLDPRP, the “shrunken log2 fold change” value came to 0.0519. In the case of RRIRFRPPRLPRPRPRPAHTPRP it was -0.282; in that of RRIRQRPPRLPRPRPRPKTTPRP, -0.636; in that of RRIRFRPPRLPRPRPRPKQSPRP, 0.328. Next, RRIRERPPRLPRPRPRPVSCPRP: 0.182; RRIRRRPPRLPRPRPRPQQLPRP: -0.0976; RRIRVRPPRLPRPRPRPTYEPRP: -0.152. For RRIRCRPPRLPRPRPRPQYNPRP, the “shrunken log2 fold change” value was -1.36. Next, RRIRMRPPRLPRPRPRPDTIPRP: 0.0143. Next, RRIRSRPPRLPRPRPRPHCEPRP: -0.0301. In the case of RRIRWRPPRLPRPRPRPRCEPRP it was 0.545. In the case of RRIRARPPRLPRPRPRPAPPPRP, the “shrunken log2 fold change” value was determined as 1.27. RRIRWRPPRLPRPRPRPFCFPRP: the “shrunken log2 fold change” value came out at 0.449. Next, RRIRGRPPRLPRPRPRPITHPRP: 0.0909; RRIRPRPPRLPRPRPRPMHRPRP: 0.0978. For the sequence RRIRLRPPRLPRPRPRPAQRPRP, the “shrunken log2 fold change” value stood at 0.172. Take RRIRWRPPRLPRPRPRPTKDPRP: the “shrunken log2 fold change” value was found to be 0.214.

Take RRIRERPPRLPRPRPRPIPDPRP: the “shrunken log2 fold change” value was -0.209. Consider RRIRTRPPRLPRPRPRPGDFPRP, for which the “shrunken log2 fold change” value was -0.093. For the sequence RRIRGRPPRLPRPRPRPHDDPRP, the “shrunken log2 fold change” value is 0.0376. For the sequence RRIRCRPPRLPRPRPRPWQAPRP, the “shrunken log2 fold change” value was determined as 0.204. In the case of RRIRTRPPRLPRPRPRPHERPRP it was 0.594; in that of RRIRGRPPRLPRPRPRPMFGPRP, 0.39; in that of RRIRARPPRLPRPRPRPNWLPRP, 0.275.

For the sequence RRIRQRPPRLPRPRPRPSFAPRP, the “shrunken log2 fold change” value was 0.0485. As to RRIRRRPPRLPRPRPRPNISPRP, the “shrunken log2 fold change” value was -0.263. Next, RRIRPRPPRLPRPRPRPRKMPRP: 0.0337. Next, RRIRMRPPRLPRPRPRPNHVPRP: -0.409; RRIRARPPRLPRPRPRPDGSPRP: 0.0886; RRIRKRPPRLPRPRPRPSVCPRP: -0.0364.
